Test results published in patent US10961546B2, “Glyphosate-resistant gene screening method, EPSPS mutant gene and deficient strain and use” (GEVOTO LLC, priority 2016, dated 2021).
Where “and” joins values, the source holds several entries; their conditions need not be identical. Equal entries are not always repeated.

How the values were obtained:
[1] = test system: E. coli (EPSPS gene-and-C-P lyase genes-deleted strain); assay: glyphosate resistance testing of Oryza sativa EPSPS mutant gene: growth of transformed E. coli on culture media containing glyphosate; assay type: cell-based; design: key: saturation index=0, no growth; saturation index=1, minor growth; saturation index=2, growth to half-saturation; saturation index=3, vigorous growth, but still not saturated; saturation index=4, rapid growth, meaning the strains have reached the maximum (saturation) concentration or the growth has reached the limit; settings: E. coli transformed with the gene
Protocol: A plurality of the above obtained mutant strains were inoculated on a plurality of screening culture media with different concentrations of glyphosate, respectively (the screening culture media contained different concentrations of glyphosate, and the glyphosate concentrations contained in them were 10 mM, 20 mM, 50 mM, etc., respectively, having a gradient in glyphosate concentrations, and of course, the glyphosate concentration may be set as required), and cultured at 37° C. overnight. The screening culture media were obtained by using M9 as a basal medium, to which certain concentrations of antibiotics, including Specs (Spectinomycin), Gen (Gentamycin) and Amp (Ampicillin), and different concentrations of glyphosate were added. M9 culture medium consists of the following ingredients: 13˜14 g/L of Na2HPO4, 5.7˜6.3 g/L of KH2PO4, 0.9˜1.1 g/L of NaCl, 1.8˜2.2 g/L of NH4Cl, 37˜43 g/L of glucose, 48˜52 g/L of MgSO4.7H2O and 21˜23 g/L of CaCl2.
(§1) For glyphosate resistance testing of Oryza sativa EPSPS mutant gene, E. coli (EPSPS gene-and-C-P lyase genes-deleted strain) respectively transformed with OsEM gene (experimental group) and OsE gene (control group) were inoculated to culture media containing 0 mM, 1 mM, 5 mM, 10 mM, 20 mM, 50 mM and 100 mM glyphosate to see the growth of E. coli (indicated by growth saturation index: saturation index=0, no growth; saturation index=1, minor growth; saturation index=2, growth to half-saturation; saturation index=3, vigorous growth, but still not saturated; saturation index=4, rapid growth, meaning the strains have reached the maximum (saturation) concentration or the growth has reached the limit).

[2] = test system: E. coli (EPSPS gene-and-C-P lyase genes-deleted strain); assay: glyphosate resistance testing of Glycine max EPSPS mutant gene: growth of transformed E. coli on culture media containing glyphosate; assay type: cell-based; design: key: saturation index=0, no growth; saturation index=1, minor growth; saturation index=2, growth to half-saturation; saturation index=3, vigorous growth, but still not saturated; saturation index=4, rapid growth, meaning the strains have reached the maximum (saturation) concentration or the growth has reached the limit; settings: E. coli transformed with the gene
Protocol: as §1
For glyphosate resistance testing of Glycine max EPSPS mutant gene, E. coli (EPSPS gene-and-C-P lyase genes-deleted strain) respectively transformed with GmEM gene (experimental group) and GmE gene (control group) were inoculated to culture media containing 0 mM, 1 mM, 5 mM, 10 mM, 20 mM, 50 mM and 100 mM glyphosate to see the growth of E. coli.

[3] = culture medium with 0 mM glyphosate
[4] = culture medium with 1 mM glyphosate
[5] = culture medium with 5 mM glyphosate
[6] = culture medium with 10 mM glyphosate
[7] = culture medium with 20 mM glyphosate
[8] = culture medium with 50 mM glyphosate
[9] = culture medium with 100 mM glyphosate

B1: OsE: wild type Oryza sativa EPSPS gene, SEQ ID NO.1; control group (nucleic acid, listed as Oryza sativa)
DNA: ATGGCGTCCAACGCCGCGGCTGCGGCGGCGAAGGCGGAGGAGATCGTGCTCCAGCCCATCAGGGAGATCTCCGGGGCGGTTCAGCTGCCAGGGTCCAAGTCGCTCTCCAACAGGATCCTCCTCCTCTCCGCCCTCTCCGAGGGCACAACAGTGGTGGACAACTTGCTGAACAGTGAGGATGTTCACTACATGCTTGAGGCCCTGAAAGCCCTCGGGCTCTCTGTGGAAGCAGATAAAGTTGCAAAAAGAGCTGTAGTCGTTGGCTGTGGTGGCAAGTTTCCTGTTGAGAAGGATGCGAAAGAGGAAGTGCAACTCTTCTTGGGGAACGCTGCGACTGCAATGCGACTCTTGACAGCAGCCGTGACTGCTGCTGGTGGAAATGCAACTTATGTGCTTGATGGAGTGCCACGAATGAGGGAGAGACCGATTGGTGACTTGGTTGTCGGGTTGAAACAACTTGGTGCGGATGTCGACTGTTTCCTTGGCACTGAATGCCCACCTGTTCGTGTCAAGGGAATTGGAGGACTTCCTGGTGGCAAGGTTAAGCTCTCTGGTTCCATCAGCAGTCAGTACTTGAGTGCCTTGCTGATGGCTGCTCCTTTGGCCCTTGGGGATGTGGAGATCGAAATCATTGACAAACTAATCTCCATTCCTTACGTTGAAATGACATTGAGATTGATGGAGCGTTTTGGTGTGAAGGCAGAGCATTCTGATAGTTGGGACAGATTCTATATTAAGGGAGGGCAGAAGTACAAATCTCCTGGAAATGCCTATGTTGAAGGTGATGCCTCAAGCGCGAGCTATTTCTTGGCTGGTGCTGCAATCACTGGAGGCACTGTGACAGTTCAAGGTTGTGGTACGACCAGTTTGCAGGGTGATGTCAAATTTGCTGAGGTACTTGAGATGATGGGAGCAAAGGTTACATGGACTGACACCAGTGTAACCGTAACTGGTCCACCACGTGAGCCTTATGGGAAGAAACACCTGAAAGCTGTTGATGTCAACATGAACAAAATGCCTGATGTTGCCATGACCCTTGCCGTTGTTGCACTCTTCGCTGATGGTCCAACTGCTATCAGAGATGTGGCTTCCTGGAGAGTAAAGGAAACCGAAAGGATGGTTGCAATTCGGACCGAGCTAACAAAGCTGGGAGCATCGGTTGAAGAAGGTCCTGACTACTGCATCATCACCCCACCGGAGAAGCTGAACATCACGGCAATCGACACCTACGATGATCACAGGATGGCCATGGCCTTCTCCCTCGCTGCCTGCGCCGACGTGCCCGTGACGATCAGGGACCCTGGTTGCACCCGCAAGACCTTCCCCAACTACTTCGACGTTCTAAGCACTTTCGTCAGGAACTGA
Q: Which results are given for B1?
A: Growth saturation index [1, 3]: 4; Growth saturation index [1, 4]: 0; Growth saturation index [1, 5]: 0; Growth saturation index [1, 6]: 0; Growth saturation index [1, 7]: 0; Growth saturation index [1, 8]: 0; Growth saturation index [1, 9]: 0

B2: GmE: wild type Glycine max EPSPS gene, SEQ ID NO.5; control group (nucleic acid)
DNA: ATGGATAGCGTGGCGGCGGCGGAAAAACCGAGCACCAGCCCGGAAATTGTGCTGGAACCGATTAAAGATTTTAGCGGCACCATTACCCTGCCGGGCAGCAAAAGCCTGAGCAACCGCATTCTGCTGCTGGCGGCGCTGAGCGAAGGCACCACCGTGGTGGATAACCTGCTGTATAGCGAAGATATTCATTATATGCTGGGCGCGCTGCGCACCCTGGGCCTGCGCGTGGAAGATGATAAAACCACCAAACAGGCGATTGTGGAAGGCTGCGGCGGCCTGTTTCCGACCAGCAAAGAAAGCAAAGATGAAATTAACCTGTTTCTGGGCAACGCGGCGACCGCGATGCGCAGCCTGACCGCGGCGGTGGTGGCGGCGGGCGGCAACGCGAGCTATGTGCTGGATGGCGTGCCGCGCATGCGCGAACGCCCGATTGGCGATCTGGTGGCGGGCCTGAAACAGCTGGGCGCGGATGTGGATTGCTTTCTGGGCACCAACTGCCCGCCGGTGCGCGTGAACGGCAAAGGCGGCCTGCCGGGCGGCAAAGTGAAACTGAGCGGCAGCGTGAGCAGCCAGTATCTGACCGCGCTGCTGATGGCGGCGCCGCTGGCGCTGGGCGATGTGGAAATTGAAATTGTGGATAAACTGATTAGCGTGCCGTATGTGGAAATGACCCTGAAACTGATGGAACGCTTTGGCGTGAGCGTGGAACATAGCGGCAACTGGGATCGCTTTCTGGTGCATGGCGGCCAGAAATATAAAAGCCCGGGCAACGCGTTTGTGGAAGGCGATGCGAGCAGCGCGAGCTATCTGCTGGCGGGCGCGGCGATTACCGGCGGCACCATTACCGTGAACGGCTGCGGCACCAGCAGCCTGCAGGGCGATGTGAAATTTGCGGAAGTGCTGGAAAAAATGGGCGCGAAAGTGACCTGGAGCGAAAACAGCGTGACCGTGAGCGGCCCGCCGCGCGATTTTAGCGGCCGCAAAGTGCTGCGCGGCATTGATGTGAACATGAACAAAATGCCGGATGTGGCGATGACCCTGGCGGTGGTGGCGCTGTTTGCGAACGGCCCGACCGCGATTCGCGATGTGGCGAGCTGGCGCGTGAAAGAAACCGAACGCATGATTGCGATTTGCACCGAACTGCGCAAACTGGGCGCGACCGTGGAAGAAGGCCCGGATTATTGCGTGATTACCCCGCCGGAAAAACTGAACGTGACCGCGATTGATACCTATGATGATCATCGCATGGCGATGGCGTTTAGCCTGGCGGCGTGCGGCGATGTGCCGGTGACCATTAAAGATCCGGGCTGCACCCGCAAAACCTTTCCGGATTATTTTGAAGTGCTGGAACGCCTGACCAAACATTAA
modifications: Glycine max
notes: control group
Q: Which results are given for B2?
A: Growth saturation index [2, 3]: 4; Growth saturation index [2, 4]: cannot grow normally and 0; Growth saturation index [2, 5]: cannot grow normally and 0; Growth saturation index [2, 6]: cannot grow normally and 0; Growth saturation index [2, 7]: cannot grow normally and 0; Growth saturation index [2, 8]: cannot grow normally and 0; Growth saturation index [2, 9]: 0
